Results taken from article PMC5674511, “Increase of enzyme activity through specific covalent modification with fragments” (Chemical Science, 2017).

Substrate: CC(=O)N[C@H]1[C@H](Oc2ccc3c(C)cc(=O)oc3c2)O[C@H](CO)[C@@H](O)[C@@H]1O
Test: fluorescence, 4MU release, Michaelis-Menten
Type: biochemical, Bacteroides thetaiotaomicron
Conditions: unmodified wild-type enzyme
Text: fluorescence, 4MU release, Michaelis-Menten on BtGH84

B1: BtGH84 (Bacteroides thetaiotaomicron VPI-5482) (protein)
chain: QNVSLQPPPQQLIVQNKTIDLPAVYQLNGGEEANPHAVKVLKELLSGKQSSKKGMLISIGEKGDKSVRKYSRQIPDHKEGYYLSVNEKEIVLAGNDERGTYYALQTFAQLLKDGKLPEVEIKDYPSVRYRGVVEGFYGTPWSHQARLSQLKFYGKNKMNTYIYGPKDDPYHSAPNWRLPYPDKEAAQLQELVAVANENEVDFVWAIHPGQDIKWNKEDRDLLLAKFEKMYQLGVRSFAVFFDDISGEGTNPQKQAELLNYIDEKFAQVKPDINQLVMCPTEYNKSWSNPNGNYLTTLGDKLNPSIQIMWTGDRVISDITRDGISWINERIKRPAYIWWNFPVSDYVRDHLLLGPVYGNDTTIAKEMSGFVTNPMEHAESSKIAIYSVASYAWNPAKYDTWQTWKDAIRTILPSAAEELECFAMHNSDLGPNGHGYRREESMDIQPAAERFLKAFKEGKNYDKADFETLQYTFERMKESADILLMNTENKPLIVEITPWVHQFKLTAEMGEEVLKMVEGRNESYFLRKYNHVKALQQQMFYIDQTSNQNPYQPGVKTATRVIKPLIDRTFATVVKFFNQKFNAHLDATTDYMPHKMISNVEQIKNLPLQVKANRVLISPANEVVKWAAGNSVEIELDAIYPGENIQINFGKDAPCTWGRLEISTDGKEWKTVDLKQKESRLSAGLQKAPVKFVRFTNVSDEEQQVYLRQFVLTIEKK
notes: recombinant purified enzyme
  Km: 1460 ± 220 µM
  kcat: 67 ± 5 s⁻¹
  kcat/Km: 46000 ± 5900 M⁻¹ s⁻¹
